The values that follow come from US20240327535A1 (EISAI R AND D MANAGEMENT, published 2024).

Residue numbers refer to the chain shown, from its start. Like-named read-outs stand apart in the source and are kept apart here.

Assay in all cases: Octet BLI; Fab 200 nM
(In general: Biolayer interferometry detects binding as a change in optical thickness at a sensor tip.)

Assay [1] deals with T1, extracellular domain of human BCMA (human, UniProt Q02223 1-54).
T1 construct: amine-linked to Octet AR2G tips; also called hsBCMA; BCMA (human)
T1 sequence: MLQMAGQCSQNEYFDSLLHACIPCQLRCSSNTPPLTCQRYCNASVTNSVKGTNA

For assay [2], the target named is T2, extracellular domain of rhesus monkey BCMA (rhesus monkey, UniProt F7FFA0 1-53).
T2 construct: extracellular domain; also called RhBCMA
T2 sequence (F7FFA0 entry or part of it): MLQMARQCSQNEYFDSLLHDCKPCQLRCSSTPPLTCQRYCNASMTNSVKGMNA

For assay [3], the target named is T1, extracellular domain of human BCMA. This is another data set of the same source.

B1: AB200-R1H32-R2Vk1 (Fab, V domains shown)
VH: QVQLVQSGAEVKKPGSSVKVSCKASGGTFSNYWMHWVRQAPGQGLEWMGATYRSHSDTYYNQKFKSRVTITADKSTSTAYMELSSLRSEDTAVYYCARGAIYHGYDVIDNWGQGTLVTVSS
VL: DIQMTQSPSSLSASVGDRVTITCRASQSISSYLNWYQQKPGKAPKLLIYAASSLQSGVPSRFSGSGSGTDFTLTISSLQPEDFATYYCQQFRKLPWSFGQGTKLEIKR
For the molecule B1, the Kd is 1.27 nM in assay [1] and 5.42 nM in assay [2].

B2: AB200-R1H32-R2Vk20 (Fab, V domains shown)
VH: B1 VH
VL: B1 VL with A51T, S53N, F91Y, K93R, L94I, S97T
As for B2, the Kd in assay [1] came out at 0.867 nM; in assay [2], 4.82 nM.

B3: AB200-R1H26-R2Vk2 (Fab, V domains shown)
VH: B1 VH with T28S, S54I, Y59F, S66G, I108L
VL: B1 VL with L33I
Turning to B3, in assay [3], binding was characterised by a dissociation constant (Kd) of 2.37 nM.

B4: AB200-R1H26-R2Vk16 (Fab, V domains shown)
VH: B1 VH with T28S, S54I, Y59F, S66G, I108L
VL: B1 VL with L33I, K93R, S97T
The molecule B4 registered a dissociation constant (Kd) in assay [3] of 2.09 nM.

B5: AB200-R1H26-R2Vk14 (Fab, V domains shown)
VH: B1 VH with T28S, S54I, Y59F, S66G, I108L
VL: B1 VL with L33I, F91Y, K93R
In the case of B5, binding in assay [3] was characterised by a dissociation constant (Kd) of 2.52 nM.

B6: AB200-R1H26-R2Vk17 (Fab, V domains shown)
VH: B1 VH with T28S, S54I, Y59F, S66G, I108L
VL: B1 VL with L33I, F91Y, L94I
As for B6, the Kd in assay [3] amounted to 3.59 nM.

B7: AB200-R1H26-R2Vk18 (Fab, V domains shown)
VH: B1 VH with T28S, S54I, Y59F, S66G, I108L
VL: B1 VL with L33I, L94I, S97T
Take B7: the Kd in assay [3] is 3.44 nM.

B8: AB200-R1H26-R2Vk15 (Fab, V domains shown)
VH: B1 VH with T28S, S54I, Y59F, S66G, I108L
VL: B1 VL with L33I, F91Y, K93R, L94I, S97T
In assay [3], B8 returned a Kd of 3.27 nM.

B9: AB200-R1H32-R2Vk47 (Fab, V domains shown)
VH: B1 VH
VL: B1 VL with L33I, A51T, S53N, S56I, F91Y, L94I
Regarding B9, the Kd in assay [1] was 0.766 nM; in assay [2], 3.91 nM.

B10: AB200-R1H32-R2Vk21 (Fab, V domains shown)
VH: B1 VH
VL: B1 VL with A51T, S53N, K93R, S97T
As to B10, the values for the Kd in assay [1] and in assay [2] were 0.8 nM and 3.31 nM, respectively.

B11: AB200-R1H32-R2Vk24 (Fab, V domains shown)
VH: B1 VH
VL: B1 VL with A51T, S53N, L54I, F91Y, K93R
Consider B11, for which the Kd worked out at 1.05 nM in assay [1] and 4.89 nM in assay [2].

B12: AB200-R1H32-R2Vk13 (Fab, V domains shown)
VH: B1 VH
VL: B1 VL with L94I, S97T
Regarding B12, the Kd turned out to be 2.2 nM in assay [1] and 6.59 nM in assay [2].

B13: AB200-R1H32-R2Vk31 (Fab, V domains shown)
VH: B1 VH
VL: B1 VL with A51T, S53N, S56I, K93R, S97T
As to B13, the results for the Kd in assay [1] and in assay [2] were 0.665 nM and 2.82 nM, respectively.

B14: AB200-R1H32-R2Vk6 (Fab, V domains shown)
VH: B1 VH
VL: B1 VL with L33I, A51T, S53N
With B14, the Kd in assay [1] amounted to 1.23 nM; in assay [2] it was 4.63 nM.

B15: AB200-R1H32-R2Vk11 (Fab, V domains shown)
VH: B1 VH
VL: B1 VL with K93R, S97T
In the case of B15, the Kd amounted to 0.936 nM in assay [1] and 4.1 nM in assay [2].

B16: AB200-R1H32-R2Vk3 (Fab, V domains shown)
VH: B1 VH
VL: B1 VL with A51T, S53N
Consider B16, for which the Kd came to 1.01 nM in assay [1] and 4.38 nM in assay [2].

B17: AB200-R1H32-R2Vk18 (Fab, V domains shown)
VH: B1 VH
VL: B1 VL with L33I, L94I, S97T
As for B17, the Kd in assay [1] was found to be 1.52 nM; in assay [2] it was 6.3 nM.

B18: AB200-R1H32-R2Vk2 (Fab, V domains shown)
VH: B1 VH
VL: B1 VL with L33I
As to B18, the Kd in assay [1] was found to be 1.48 nM; in assay [2] it was 5.5 nM.

B19: AB200-R1H32-R2Vk27 (Fab, V domains shown)
VH: B1 VH
VL: B1 VL with A51T, S53N, L54I, F91Y, L94I
On to B19, for which the results for the Kd in assay [1] and in assay [2] were 1.21 nM and 6.9 nM, respectively.

B20: AB200-R1H32-R2Vk39 (Fab, V domains shown)
VH: B1 VH
VL: B1 VL with L33I, A51T, S53N, L54I, F91Y, K93R
As to B20, the Kd in assay [1] was 1.06 nM; in assay [2], 4.76 nM.

B21: AB200-R1H32-R2Vk5 (Fab, V domains shown)
VH: B1 VH
VL: B1 VL with A51T, S53N, S56I
As to B21, the Kd is 0.882 nM in assay [1] and 5.66 nM in assay [2].

B22: AB200-R1H32-R2Vk35 (Fab, V domains shown)
VH: B1 VH
VL: B1 VL with L33I, A51T, S53N, F91Y, K93R, L94I, S97T
Consider B22, for which the Kd worked out at 0.843 nM in assay [1] and 4.13 nM in assay [2].

B23: AB200-R1H32-R2Vk41 (Fab, V domains shown)
VH: B1 VH
VL: B1 VL with L33I, A51T, S53N, L54I, K93R, S97T
For B23, the Kd in assay [1] was 1.19 nM; in assay [2] it was 4.26 nM.

B24: AB200-R1H32-R2Vk12 (Fab, V domains shown)
VH: B1 VH
VL: B1 VL with F91Y, L94I
On to B24, for which the Kd in assay [1] came to 1.53 nM; in assay [2], 9.12 nM.

B25: AB200-R1H32-R2Vk10 (Fab, V domains shown)
VH: B1 VH
VL: B1 VL with F91Y, K93R, L94I, S97T
With B25, the figures for the Kd in assay [1] and in assay [2] were 2.1 nM and 7.86 nM, respectively.

B26: AB200-R1H32-R2Vk15 (Fab, V domains shown)
VH: B1 VH
VL: B1 VL with L33I, F91Y, K93R, L94I, S97T
Turning to B26, the Kd in assay [1] stood at 1.29 nM; in assay [2] it was 6.41 nM.

B27: AB200-R1H32-R2Vk7 (Fab, V domains shown)
VH: B1 VH
VL: B1 VL with L33I, A51T, S53N, L54I
As for B27, the dissociation constant Kd was 1.27 nM in assay [1] and 5 nM in assay [2].

B28: AB200-R1H32-R2Vk46 (Fab, V domains shown)
VH: B1 VH
VL: B1 VL with L33I, A51T, S53N, S56I, K93R, S97T
Regarding B28, the Kd is 0.778 nM in assay [1] and 2.98 nM in assay [2].

B29: AB200-R1H32-R2Vk28 (Fab, V domains shown)
VH: B1 VH
VL: B1 VL with A51T, S53N, L54I, L94I, S97T
As for B29, the figures for the Kd in assay [1] and in assay [2] were 1.19 nM and 5.99 nM, respectively.

B30: AB200-R1H32-R2Vk17 (Fab, V domains shown)
VH: B1 VH
VL: B1 VL with L33I, F91Y, L94I
Turning to B30, the Kd was 1.43 nM in assay [1] and 7.49 nM in assay [2].

B31: AB200-R1H32-R2Vk16 (Fab, V domains shown)
VH: B1 VH
VL: B1 VL with L33I, K93R, S97T
With B31, the Kd in assay [1] turned out to be 1.17 nM; in assay [2] it was 4.54 nM.

B32: AB200-R1H32-R2Vk45 (Fab, V domains shown)
VH: B1 VH
VL: B1 VL with L33I, A51T, S53N, S56I, F91Y, K93R, L94I, S97T
As to B32, the Kd was determined as 0.714 nM in assay [1] and 3.33 nM in assay [2].

B33: AB200-R1H32-R2Vk14 (Fab, V domains shown)
VH: B1 VH
VL: B1 VL with L33I, F91Y, K93R
On to B33, for which the Kd in assay [1] turned out to be 1.32 nM; in assay [2] it was 6.05 nM.

B34: AB200-R1H32-R2Vk42 (Fab, V domains shown)
VH: B1 VH
VL: B1 VL with L33I, A51T, S53N, L54I, F91Y, L94I
Consider B34, for which the Kd came out at 1.04 nM in assay [1] and 5.93 nM in assay [2].

B35: AB200-R1H32-R2Vk8 (Fab, V domains shown)
VH: B1 VH
VL: B1 VL with L33I, A51T, S53N, S56I
Regarding B35, the Kd in assay [1] was 0.92 nM; in assay [2], 3.59 nM.

B36: AB200-R1H32-R2Vk9 (Fab, V domains shown)
VH: B1 VH
VL: B1 VL with F91Y, K93R
With B36, the figures for the Kd in assay [1] and in assay [2] were 1.43 nM and 7.38 nM, respectively.

B37: AB200-R1H32-R2Vk36 (Fab, V domains shown)
VH: B1 VH
VL: B1 VL with L33I, A51T, S53N, K93R, S97T
B37: the values for the Kd in assay [1] and in assay [2] were 0.83 nM and 3.45 nM, respectively.

B38: AB200-R1H32-R2Vk4 (Fab, V domains shown)
VH: B1 VH
VL: B1 VL with A51T, S53N, L54I
With B38, the figures for the Kd in assay [1] and in assay [2] were 1.14 nM and 5.6 nM, respectively.

What is called Kd is a measure of binding affinity in units of concentration.
